T1: PlGF (UniProt P49763-2 21-149, limits assumed)
T1 construct: bought antigen coated on the ELISA plate; also called Placental GF
T1 sequence (looked up): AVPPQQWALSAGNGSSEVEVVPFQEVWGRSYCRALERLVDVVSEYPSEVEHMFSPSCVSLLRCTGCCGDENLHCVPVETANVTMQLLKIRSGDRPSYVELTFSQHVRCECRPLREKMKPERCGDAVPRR

B1: DVD566 (bispecific antibody, human IgG1, kappa)
heavy: not shown
light: DIQMTQSPSSLSASVGDRVTITCSASQDISNYLNWYQQKPGKAPKVLIYFTSSLHSGVPSRFSGSGSGTDFTLTISSLQPEDFATYYCQQYSTVPWTFGQGTKVEIKRTVAAPSVFIFPPAIQMTQSSSSFSVSLGDRVTITCKASEDIYNRFAWYQQKPGNAPRLLISGAASLEAGVPSRFSGSGSGQDYTLSITSLQTEDVATYYCQQYWSTPWTFGGGTKLEIKRTVAAPSVFIFPPSDEQLKSGTASVVCLLNNFYPREAKVQWKVDNALQSGNSQESVTEQDSKDSTYSLSSTLTLSKADYEKHKVYACEVTHQGLSSPVTKSFNRGEC
notes: HC linker short, LC linker long; also called DVD-Ig DVD566
B2: DVD552 (bispecific antibody, human IgG1, kappa)
heavy: not shown
light: DIQMTQSPSSLSASVGDRVTITCRASQDVSTAVAWYQQKPGKAPKLLIYSASFLYSGVPSRFSGSGSGTDFTLTISSLQPEDFATYYCQQSYTTPPTFGQGTKVEIKRTVAAPSVFIFPPAIQMTQSSSSFSVSLGDRVTITCKASEDIYNRFAWYQQKPGNAPRLLISGAASLEAGVPSRFSGSGSGQDYTLSITSLQTEDVATYYCQQYWSTPWTFGGGTKLEIKRTVAAPSVFIFPPSDEQLKSGTASVVCLLNNFYPREAKVQWKVDNALQSGNSQESVTEQDSKDSTYSLSSTLTLSKADYEKHKVYACEVTHQGLSSPVTKSFNRGEC
notes: HC linker long, LC linker long; also called DVD-Ig DVD552
B3: DVD568 (bispecific antibody, human IgG1, kappa)
heavy: not shown
light: B2 light
notes: HC linker short, LC linker long; also called DVD-Ig DVD568
B4: DVD546 (bispecific antibody, human IgG1, kappa)
heavy: not shown
light: DIQMTQSPSSLSASVGDRVTITCRASQVIRRSLAWYQQKPGKAPKLLIYAASNLASGVPSRFSGSGSGTDFTLTISSLQPEDFATYYCQQSNTSPLTFGQGTKVEIKRTVAAPAIQMTQSSSSFSVSLGDRVTITCKASEDIYNRFAWYQQKPGNAPRLLISGAASLEAGVPSRFSGSGSGQDYTLSITSLQTEDVATYYCQQYWSTPWTFGGGTKLEIKRTVAAPSVFIFPPSDEQLKSGTASVVCLLNNFYPREAKVQWKVDNALQSGNSQESVTEQDSKDSTYSLSSTLTLSKADYEKHKVYACEVTHQGLSSPVTKSFNRGEC
notes: outer AB071 (VEGF), inner AB074 (PlGF); HC linker short, LC linker short; also called DVD-Ig DVD546
B5: DVD562 (bispecific antibody, human IgG1, kappa)
heavy: not shown
light: B4 light
notes: outer AB071 (VEGF), inner AB074 (PlGF); HC linker long, LC linker short; also called DVD-Ig DVD562
B6: DVD554 (bispecific antibody, human IgG1, kappa)
heavy: not shown
light: DIQMTQSPSSLSASVGDRVTITCRASQVIRRSLAWYQQKPGKAPKLLIYAASNLASGVPSRFSGSGSGTDFTLTISSLQPEDFATYYCQQSNTSPLTFGQGTKVEIKRTVAAPSVFIFPPAIQMTQSSSSFSVSLGDRVTITCKASEDIYNRFAWYQQKPGNAPRLLISGAASLEAGVPSRFSGSGSGQDYTLSITSLQTEDVATYYCQQYWSTPWTFGGGTKLEIKRTVAAPSVFIFPPSDEQLKSGTASVVCLLNNFYPREAKVQWKVDNALQSGNSQESVTEQDSKDSTYSLSSTLTLSKADYEKHKVYACEVTHQGLSSPVTKSFNRGEC
notes: outer AB071 (VEGF), inner AB074 (PlGF); HC linker long, LC linker long; also called DVD-Ig DVD554
B7: DVD542 (bispecific antibody, human IgG1, kappa)
heavy: not shown
light: DIQMTQSPSSLSASVGDRVTITCSASQDISNYLNWYQQKPGKAPKVLIYFTSSLHSGVPSRFSGSGSGTDFTLTISSLQPEDFATYYCQQYSTVPWTFGQGTKVEIKRTVAAPAIQMTQSSSSFSVSLGDRVTITCKASEDIYNRFAWYQQKPGNAPRLLISGAASLEAGVPSRFSGSGSGQDYTLSITSLQTEDVATYYCQQYWSTPWTFGGGTKLEIKRTVAAPSVFIFPPSDEQLKSGTASVVCLLNNFYPREAKVQWKVDNALQSGNSQESVTEQDSKDSTYSLSSTLTLSKADYEKHKVYACEVTHQGLSSPVTKSFNRGEC
notes: HC linker short, LC linker short; also called DVD-Ig DVD542
B8: DVD558 (bispecific antibody, human IgG1, kappa)
heavy: not shown
light: B7 light
notes: HC linker long, LC linker short; also called DVD-Ig DVD558
B9: DVD544 (bispecific antibody, human IgG1, kappa)
heavy: not shown
light: DIQMTQSPSSLSASVGDRVTITCRASQDVSTAVAWYQQKPGKAPKLLIYSASFLYSGVPSRFSGSGSGTDFTLTISSLQPEDFATYYCQQSYTTPPTFGQGTKVEIKRTVAAPAIQMTQSSSSFSVSLGDRVTITCKASEDIYNRFAWYQQKPGNAPRLLISGAASLEAGVPSRFSGSGSGQDYTLSITSLQTEDVATYYCQQYWSTPWTFGGGTKLEIKRTVAAPSVFIFPPSDEQLKSGTASVVCLLNNFYPREAKVQWKVDNALQSGNSQESVTEQDSKDSTYSLSSTLTLSKADYEKHKVYACEVTHQGLSSPVTKSFNRGEC
notes: HC linker short, LC linker short; also called DVD-Ig DVD544
B10: DVD560 (bispecific antibody, human IgG1, kappa)
heavy: not shown
light: B9 light
notes: HC linker long, LC linker short; also called DVD-Ig DVD560
B11: DVD575 (bispecific antibody, human IgG1, kappa)
heavy: not shown
light: DIVLTQSPDSLAVSLGERVTMNCKSSQSLLNSGMRKSFLAWYQQKPGQSPKLLIYWASTRESGVPDRFTGSGSGTDFTLTISSVQAEDVAVYYCKQSYHLFTFGSGTKLEIKRTVAAPDIQMTQSPSSLSASVGDRVTITCRASQVIRRSLAWYQQKPGKAPKLLIYAASNLASGVPSRFSGSGSGTDFTLTISSLQPEDFATYYCQQSNTSPLTFGQGTKVEIKRTVAAPSVFIFPPSDEQLKSGTASVVCLLNNFYPREAKVQWKVDNALQSGNSQESVTEQDSKDSTYSLSSTLTLSKADYEKHKVYACEVTHQGLSSPVTKSFNRGEC
notes: outer AB047 (PlGF), inner AB071 (VEGF); HC linker short, LC linker short; also called DVD-Ig DVD575
B12: DVD553 (bispecific antibody, human IgG1, kappa)
heavy: not shown
light: AIQMTQSSSSFSVSLGDRVTITCKASEDIYNRFAWYQQKPGNAPRLLISGAASLEAGVPSRFSGSGSGQDYTLSITSLQTEDVATYYCQQYWSTPWTFGGGTKLEIKRTVAAPSVFIFPPDIQMTQSPSSLSASVGDRVTITCRASQVIRRSLAWYQQKPGKAPKLLIYAASNLASGVPSRFSGSGSGTDFTLTISSLQPEDFATYYCQQSNTSPLTFGQGTKVEIKRTVAAPSVFIFPPSDEQLKSGTASVVCLLNNFYPREAKVQWKVDNALQSGNSQESVTEQDSKDSTYSLSSTLTLSKADYEKHKVYACEVTHQGLSSPVTKSFNRGEC
notes: outer AB074 (PlGF), inner AB071 (VEGF); HC linker long, LC linker long; also called DVD-Ig DVD553
B13: DVD569 (bispecific antibody, human IgG1, kappa)
heavy: not shown
light: B12 light
notes: outer AB074 (PlGF), inner AB071 (VEGF); HC linker short, LC linker long; also called DVD-Ig DVD569
B14: DVD567 (bispecific antibody, human IgG1, kappa)
heavy: not shown
light: AIQMTQSSSSFSVSLGDRVTITCKASEDIYNRFAWYQQKPGNAPRLLISGAASLEAGVPSRFSGSGSGQDYTLSITSLQTEDVATYYCQQYWSTPWTFGGGTKLEIKRTVAAPSVFIFPPDIQMTQSPSSLSASVGDRVTITCRASQDVSTAVAWYQQKPGKAPKLLIYSASFLYSGVPSRFSGSGSGTDFTLTISSLQPEDFATYYCQQSYTTPPTFGQGTKVEIKRTVAAPSVFIFPPSDEQLKSGTASVVCLLNNFYPREAKVQWKVDNALQSGNSQESVTEQDSKDSTYSLSSTLTLSKADYEKHKVYACEVTHQGLSSPVTKSFNRGEC
notes: HC linker short, LC linker long; also called DVD-Ig DVD567
B15: DVD573 (bispecific antibody, human IgG1, kappa)
heavy: not shown
light: DIVLTQSPDSLAVSLGERVTMNCKSSQSLLNSGMRKSFLAWYQQKPGQSPKLLIYWASTRESGVPDRFTGSGSGTDFTLTISSVQAEDVAVYYCKQSYHLFTFGSGTKLEIKRTVAAPDIQMTQSPSSLSASVGDRVTITCRASQDVSTAVAWYQQKPGKAPKLLIYSASFLYSGVPSRFSGSGSGTDFTLTISSLQPEDFATYYCQQSYTTPPTFGQGTKVEIKRTVAAPSVFIFPPSDEQLKSGTASVVCLLNNFYPREAKVQWKVDNALQSGNSQESVTEQDSKDSTYSLSSTLTLSKADYEKHKVYACEVTHQGLSSPVTKSFNRGEC
notes: HC linker short, LC linker short; also called DVD-Ig DVD573

These binders were tested against T1, PlGF (assay: direct bind ELISA, C-terminal VD).
Experimental: Enzyme Linked Immunosorbent Assays to screen for antibodies that bind a desired target antigen were performed as follows. […] Plates were washed four times with PBS containing 0.02% Tween 20. Plates were blocked by the addition of 300 μL/well blocking solution (non-fat dry milk powder, various retail suppliers, diluted to 2% in PBS) for ½ hour at room temperature. Plates were washed four times after blocking with PBS containing 0.02% Tween 20.
Plates were washed 4 times with PBS containing 0.02% Tween 20.

Row | EC50 [nM] | Binder
1 | 1.42 | B1
2 | 8.54 | B2
3 | 2.84 | B3
4 | 7.03 | B4
5 | 1.12 | B5
6 | 0.45 | B6
7 | 13 | B7
8 | 3.37 | B8
9 | 13.8 | B9
10 | 2.53 | B10

Each binder was assayed against T2, VEGF (UniProt P15692 27-191, limits assumed) (assay: direct bind ELISA, N-terminal VD).
T2 construct: bought antigen coated on the ELISA plate
T2 sequence (P15692 other isoform, or with tags, fused parts or gaps limits assumed): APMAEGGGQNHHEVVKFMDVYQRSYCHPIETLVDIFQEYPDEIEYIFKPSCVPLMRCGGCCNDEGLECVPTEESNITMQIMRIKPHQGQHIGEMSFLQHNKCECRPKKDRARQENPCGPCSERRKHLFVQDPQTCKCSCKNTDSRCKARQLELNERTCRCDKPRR

Row | EC50 [nM] | Binder
11 | 1.49 | B1
12 | 314 | B2
13 | 3.14 | B3
14 | 25.8 | B4
15 | 17.7 | B5
16 | 15.2 | B6
17 | 0.8 | B7
18 | 1.96 | B8
19 | 2.35 | B9
20 | 3.12 | B10

What follows are binders tested against T1, PlGF (assay: direct bind ELISA, N-terminal VD).

Row | EC50 [nM] | Binder
21 | 0.14 | B11
22 | 66300 | B12
23 | 88.5 | B13
24 | 340 | B14
25 | 0.14 | B15
